# Data: the nanobody polyreactivity screen of Harvey et al. (2022)
# Assay: yeast display, Sf9 membrane polyspecificity reagent, FACS + sequencing; frameworks hold sequencing errors
# Summary of the method: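 Galactose-induced (36–48 hours) yeast carrying a synthetic nanobody display library were exposed to 10% biotinylated, detergent-solubilized Sf9 membrane reagent at 4 °C for 1 hour. FACS followed streptavidin microbead enrichment, using low and high (top ~1%) gates for expression (anti-HA) and reagent binding (streptavidin). Colony PCR, MiSeq 2 × 250 sequencing and CDR-length filtering followed. Labels for polyreactivity reflect the gate of origin.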
row,Sequence,polyreactivity (PSR sort gate)
1,QVQLVESGGGLVQAVGSLRLSCAASGSTFHWYDMGWYRQAPGKERELVPGINSSGDGTYYADSVKGRFTISRDNAKNTVYLQMNSLKPEDTAVYDCAAPWWYYGVPYQTNKYDYWGQGTQVTLSS,low polyreactivity
2,QVQLVESGGGLVQAVGSLRLSCAASGSTFPRYAMRWYRQAPGKERELVAAISRSGGSTYYADSVKGRFTISRDNATNTVYLQMNSLKPEDTAVYYCAARDDRGSYKYDYWRQGTQVTVSS,high polyreactivity
3,QVQLVESGGGLVQAVGSLRLSCAASGSTFPYYTMGWYRQAPGKERELVAAITASGGSTYYADSVKGRVTISRDNAKNTVYLQMNSLKPEDTAVYYCAATCLNHVRKSRGYDYWGQGTQVTVSS,high polyreactivity
4,QVQLVESGGGLVQAVGSLRLSCAASGSTFYPYAMGWYRQSPGKERELVAAISISGGITYYADSVKVRFTISRDNAKNTVYLQMNSLKPEDTAVYYCAAEYLAVSGYWYDYWGQGTQVTVSS,high polyreactivity
5,QVQLVESGGGLVQAVGSLRLSCADSGTFPYYAMGRYRQAPWKERELVAAITRSGTRTYYADSVKGRFTISRDNAKNTGYLQMKSLKPEDTAVYYCAARQTGFSSQFRGYYSWGQGTQVTVSS,high polyreactivity
6,QVQLVESGGGLVQAVGSLRLSSAASGSIFYVYAMGWYRQAPGKERELVAAMTNYADSVKGRFTISRDNAKNTVYLQMNSLKPEDTAVYYCAADWWRVEMDYWGQGTQVTVSS,low polyreactivity
7,QVQLVESGGGLVQAVGSLRLTCAASGSIFGHYAMGLSRHAPGKDRELVAAISASTGRTYNADSVKGRFTISRDNAKNPVYLQMNSLKPEDTAFYYCAVRVHWTIWDYYYWGQGTQVTVSS,high polyreactivity
8,QVQLVESGGGLVQAVSSLRLSCAASGYIFDRNAMGWYRRAPGKERELVAAITKRGGITYYADSVKGRFTISRDNAKNTVYLQMNSLKPEDTAVYYCAAKTLYNSGTQDRAMGYWGQGTQVTVSS,high polyreactivity
9,QVQLVESGGGLVQEGGSLLLSCDASGFTFAVYAMGWYRQAPGKERELVAAITTSGTRTYNADSVKGRFTISRDNAKNTVYLQMNSLKPEDTAVYYCAAVVFRQWPEFDYWGQGTQVTVSS,low polyreactivity
10,QVQLVESGGGLVQEGGSLLLSFAASGSTFGYYAMGWYRQAPGKEREFVAAISDSGDGTYYADSVKGRFTISRDNEKNTVYLQMNSLKQEDTAVYYCAAEAPYYFGWWYGYKYDSWGQGTQVTVSW,high polyreactivity
11,QVQLVESGGGLVQEGGSLRLICAASGFTFGAHGMGWYRQAPGKERELVAANNSRGSRTYYADSGKGRFTISRDNPKNTVFFQMNSLQPDDTAVYYCAADYYAFKFGRFDYWGHGTQVTVSS,high polyreactivity
12,QVQLVESGGGLVQEGGSLRLICAASGRIFRYYAMGWYRQAPGKERELVASITYSGGRTNYADSVKGRFTISRDNAKNTVYVQMNSLKPEDTAVYYCNAAYVYYYPHYRYAPTAVDYDYWGQGTQVTVSS,low polyreactivity
13,QVQLVESGGGLVQEGGSLRLRCAASGRTFPINAMGWYRQAPGKERELVASIRWTDGTTYYADSVKGRFTISRDTAKNTVYLQMNSLKPEDTAVYYCAADAEGSASKYVYWGQGTQVTVSS,low polyreactivity
14,QVQLVESGGGLVQEGGSLRLSCAAAGIIFIAYAMGWYREAPGKERELVADISIGGSTNYADSVKGRFTISRDNAKNTVYLQMTSQKPEDTAVYYCNAGGGFYGSTVEHDYWGQGTQVSVSS,low polyreactivity
15,QVQLVESGGGLVQEGGSLRLSCAASGFIFYRYTKGWYRQAPGKERELVAGISSRGTRTYYADSVKGRFTISRDNAKNTVYLQMNSLKPEDNAVYYCAKVDGSKRYNYWGQGTQVTVSS,high polyreactivity
16,QVQLVESGGGLVQEGGSLRLSCAASGFTFDDYAMGWYRQAPGKERELVATITNSDSSTYYADSVKGRFTISRDNEKNTFYLQMNSLQPVDTAVYYCAADGRYAYGYNHWGHGTQVTVSS,low polyreactivity

row,Sequence,polyreactivity (PSR sort gate)
1,QVQLVESGGGLVQEGGSLRLSCAASGFTYYHYAMGWYRHAPGKERELVAAITWSGGDTYYADSVKGRFTISRDNAKNTVYLQMNSLKPDDTAVYYCNADDPPGARYFDSFDYRGDYWGQGTQVTVSS,low polyreactivity
2,QVQLVESGGGLVQEGGSLRLSCAASGIIFGPYVMGWYRQAPGKERELVATISRTGDTYYADSVKGRFTISRDNAKNTVYLQMNSVKPEDTAVYYCNTQDHGYGFTMDYWGQGTQVTVSS,low polyreactivity
3,QVQLVESGGGLVQEGGSLRLSCAASGIIHYYYVMGWYRPAPGKERELVAAINRSGTATYYADSVKGRFTISRDNAKNTVYFQMNSLIPEDTAVYYCAADVRWRYYWGQGTQVTVSS,high polyreactivity
4,QVQLVESGGGLVQEGGSLRLSCAASGITFGRYAMGWYRQAPGKERELVAAITTRGGSTYYADSVKGRFTISRDNAKNTVYLQMNSLKPEDTAVYYCAARVPGVSVKNDYCGQGTQVTVSS,high polyreactivity
5,QVQLVESGGGLVQEGGSLRLSCAASGITFSYYAMGWYREAPGKEREWVATIRSSGGSTYYADSVKGRFTISRENAKNTVYLQMNSQKPEDTAVYYCAVRLWFDYNYWGQGTQVTVSS,low polyreactivity
6,QVQLVESGGGLVQEGGSLRLSCAASGNIFRAYGMGWYRQAPGKERELVAAIDTTGGRTYYADSVKGRFTISRDNAKNTVYLQMNSLKPEDTAVYYCAVRAPAYPYYRGFDYWGQGTQVTVSS,low polyreactivity
7,QVQLVESGGGLVQEGGSLRLSCAASGNIFRINGMGWYRQAPGKERELVATITGNGGSTYYAASVKGRFTISRDNAQNTVYLQMNSLKPEDTAVFYCAAQTTVYIYDYWGQGTQVTVSS,low polyreactivity
8,QVQLVESGGGLVQEGGSLRLSCAASGRIFVGNAMGWYRQAPGKERELVASMTRGRRTNYADSVKGRFTISRDNAKNTVFFQMNSLKPVDTAVYYCNAPGVTRAYLVGYDYWGQGTQVTVSS,low polyreactivity
9,QVQLVESGGGLVQEGGSLRLSCAASGRIFYFYAMGRYRQAPGKERELVADIDWSGDSTYYADSVKGRFTISRDNAKITVYLQMNSLIPEDTAVYYCNAAYYYYSTSYTYDYWGQGTQVTVSS,low polyreactivity
10,QVQLVESGGGLVQEGGSLRLSCAASGRILSPNAMGWYRQAPGKERELVATITRSGGSTYYADSVKGRFTISRDNAKNTVYLQMNSLKPEDTAVYYCAKLHTYPWIHDYWGQGTQVTVSS,low polyreactivity
11,QVQLVESGGGLVQEGGSLRLSCAASGSIFAKYAMGWYSQAPGKEREFVAGISYSGNTYYADSVKGRFTISRDNAKNTVYLQMNSLKPEDTAVYYCAADGYLQTRRFDYWGQGTQVTVSS,high polyreactivity
12,QVQLVESGGGLVQEGGSLRLSCAASGSIFGRNVMGWYRQAPGKERELVAAISEGGGRTYYADSVKGRFTISRDNAKNTVYLQMNSLKPEVTAVYYCAAAYFSSGYKYYYWGQGTQVTVSS,high polyreactivity
13,QVQLVESGGGLVQEGGSLRLSCAASGSIFKEYAMGWSRQAPGKERELVAAISTSGDITYYSDSVKGRFTISRDNAKNTVYLQMNSLKPEDTGVYYCAANYSLLRQYNRLDYWGQGTQLTVSS,low polyreactivity
14,QVQLVESGGGLVQEGGSLRLSCAASGSIFNTYAMGRYRQAPGKEREMVAGITKTGSRTYYADSVKGRFTISRDNAKNTVYLQMNSLKPEDTAVYYCNARIWPRSYRYDYWGQGTQVTVSS,high polyreactivity
15,QVQLVESGGGLVQEGGSLRLSCAASGSTFPLYTMGWYRQAPGKERELVATISRGGSTYYADSVKGRFTISRDNAKNTVYLQMNSLKPEDTAVYYCAARPFGFKFDYWGQGTQVTVSA,low polyreactivity
16,QVQLVESGGGLVQEGGSLRLSCAASGSTFSNYMGWYRQAPGKERELVAAITQSGVSTYYADSVKGRFTISRDNAKNTVYLQMNSLKPEDTAVYYCYNYLSGYDYWGQGTQVTVSS,low polyreactivity
